This note sets out measurements from patent publication US20030092616A1, “STAT6 activation gene” (priority 2001, published 2003).

The chains are these.
B1: 69 (nucleic acid, listed as Homo sapiens)
chain: AGTGTTTGGGTTTCTTCGCGGCTGCTCAAGATGAACCGACTCTTCGGGAAAGCGAAACCCAAGGCTCCGCCGCCCAGCCTGACTGACTGCATTGGCACGGTGGACAGTAGAGCAGAATCCATTGACAAGAAGATTTCTCGATTGGATGCTGAGCTAGTGAAGTATAAGGATCAGATCAAGAAGATGAGAGAGGGTCCTGCAAAGAATATGGTCAAGCAGAAAGCCTTGCGAGTTTTAAAGCAAAAGAGGATGTATGAGCAGCAGCGGGACAATCTTGCCCAACAGTCATTCAACATGGAACAAGCCAATTATACCATCCAGTCTTTGAAGGACACCAAGACCACGGTTGATGCTATGAAACTGGGAGTAAAGGAAATGAAGAAGGCATACAAGCAAGTGAAGATCGACCAGATTGAGGATTTACAAGACCAGCTAGAGGATATGATGGAAGATGCAAATGAAATCCAAGAAGCACTGAGTCGCAGTTATGGCACCCCAGAACTGGATGAAGATGATTTAGAAGCAGAGTTGGATGCACTAGGTGATGAGCTTCTGGCTGATGAAGACAGTTCTTATTTGGATGAGGCAGCATCTGCACCTGCAATTCCAGAAGGTGTTCCCACTGATACAAAAAACAAGGATGGAGTTCTGGTGGATGAATTTGGATTGCCACAGATCCCTGCTTCATAGATTTGCATCATTCAAGCATATCTTGTAAAACAAACACATATTATGGGACTAGGAAATATTTATCTTTCCAAATTTGCCATAACAGATTTAGGTTTCTTTCCTTTCTTTGAAGGAAAGTTTAATTACATTGCTCTTTTATTTTTTCCATTAAGAGACTCATTGCTTGGGAAATGCTTTCTTCGTACTAAAATTTGATTCCTTTTTTTCTTATGAAAAACGAACTCAGTTTAAAAGTATTTTTAGCTCGTATGACTTGTTTTCATTCATTAATAATAATTTGAAATAAAACTAAGGAAATGGAATCTTAAAAGTCTATGACAGTGTAACTCTACAGTCTCAAAATGACCTGATAAATTGATAAGACAAAGATGAGATTATTGGGGCTGTTCATATTATGATTCAGAATCATTTTCTATTGTGGTATTATAGGTTGGTTAAAGTGATGGCCTTTTTGATGGGTTTTGTTGTGTCTTGTGAACAAGTCGTTACTGTGTCCATTATTGGAATGGAATTATCACTACTGTATCATGAGTGGGTATTTTGATTCTATGGTTCCCTCAGTATTACATCTTGACTTGTAATCAATTATGAATATTTCTTGATATTTAATGTATAGGACATTTATTTATACTCAATAAATATTTTTCAAAAGG
modifications: CDS (31)..(687)
B2: 275 (nucleic acid, listed as Homo sapiens)
chain: GCAGACCCCCATCATGGGCAGCCAGAGCTCCAAGGCTCCCCGGGGCGACGTGACCGCCGAGGAGGCAGCAGGCGCTTCCCCCGCGAAGGCCAACGGCCAGGAGAATGGCCACGTGAAAAGCAATGGAGACTTATCCCCCAAGGGTGAAGGGGAGTCGCCCCCTGTGAACGGAACAGATGAGGCAGCCGGGGCCACTGGCGATGCCATCGAGCCAGCACCCCCTAGCCAGGGTGCTGAGGCCAAGGGGGAGGTCCCCCCCAAGGAGACCCCCAAGAAGAAGAAGAAATTCTCTTTCAAGAAGCCTTTCAAATTGAGCGGCCTGTCCTTCAAGAGAAATCGGAAGGAGGGTGGGGGTGATTCTTCTGCCTCCTCACCCACAGAGGAAGAGCAGGAGCAGGGGGAGATCGGTGCCTGCAGCGACGAGGGCACTGCTCAGGAAGGGAAGGCCGCAGCCACCCCTGAGAGCCAGGAACCCCAGGCCAAGGGGGCAGAGGCTAGTGCAGCCTCAGAAGAAGAGGCAGGGCCCCAGGCTACAGAGCCATCCACTCCCTCGGGGCCGGAGAGTGGCCCTACACCAGCCAGCGCTGAGCAGAATGAGTAGCTAGGTAGGGGCAGGTGGGTGATCTCTAAGCTGCAAAAACTGTGCTGTCCTTGTGAGGTCACTGCCTGGACCTGGTGCCCTGGCTGCCTTCCTGTGCCCAGAAAGGAAGGGGCTATTGCCTCCTCCCAGCCACGTTCCCTTTCCTCCTCTCCCTCCTGTGGATTCTCCCATCAGCCATCTGGTTCTCCTCTTAAGGCCAGTTGAAGATGGTCCCTTACAGCTTCCCAAGTTAGGTTAGTGATGTGAAATGCTCCTGTCCCTGGCCCTACCTCCTTCCCTGTCCCCACCCCTGCATAAGGCAGTTGTTGGTTTTCTTCCCCAATTCTTTTCCAAGTAGGTTTTGTTTACCCTACTCCCCAAATCCCTGAGCCAGAAGTGGGGTGCTTATACTCCCAAACCTTGAGTGTCCAGCCTTCCCCTGTTGTTTTTAGTCTCTTGTGCTGTGCCTAGTGGCACCTGGGCTGGGGAGGACACTGCCCCGTCTAGGTTTTTATAAATGTCTTACTCAAGTTCAAACCTCCAGCCTGTGAATCAACTGTGTCTCTTTTTTGACTTGGTAAGCAAGTATTAGGCTTTGGGGTGGGGGGAGGTCTGTAATGTGAAACAACTTCTTGTCTTTTTTTCTCCCACTGTTGTAAATAACTTTTAATGGCCAAACCCCAGATTTGTACTTTTTTTTTTTTTCTAACTGCTAAAACCATTCTCTTCCACCTGGTTTTACTGTAACATTTGG
modifications: CDS (14)..(598)
B3: 261 (nucleic acid, listed as Homo sapiens)
chain: AGTGCGCGAAGATGCGAAAGGTGGTTTTGATCACCGGGGCTAGCAGTGGCATTGGCCTGGCCCTCTGCAAGCGGCTGCTGGCGGAAGATGATGAGCTTCATCTGTGTTTGGCGTGCAGGAACATGAGCAAGGCAGAAGCTGTCTGTGCTGCTCTGCTGGCCTCTCACCCCACTGCTGAGGTCACCATTGTCCAGGTGGATGTCAGCAACCTGCAGTCGGTCTTCCGGGCCTCCAAGGAACTTAAGCAAAGGTTTCAGAGATTAGACTGTATATATCTAAATGCTGGGATCATGCCTAATCCACAACTAAATATCAAAGCACTTTTCTTTGGCCTCTTTTCAAGAAAAGTGATTCATATGTTCTCCACAGCTGAAGGCCTGCTGACCCAGGGTGATAAGATCACTGCTGATGGACTTCAGGAGGTGTTTGAGACCAATGTCTTTGGCCATTTTATCCTGATTCGGGAACTGGAGCCTCTCCTCTGTCACAGTGACAATCCATCTCAGCTCATCTGGACATCATCTCGCAGTGCAAGGAAATCTAATTTCAGCCTCGAGGACTTCCAGCACAGCAAAGGCAAGGAACCCTACAGCTCTTCCAAATATGCCACTGACCTTTTGAGTGTGGCTTTGAACAGGAACTTCAACCAGCAGGGTCTCTATTCCAATGTGGCCTGTCCAGGTACAGCATTGACCAATTTGACATATGGAATTCTGCCTCCGTTTATATGGACGCTGTTGATGCCGGCAATATTGCTACTTCGCTTTTTTGCAAATGCATTCACTTTGACACCATATAATGGAACAGAAGCTCTGGTATGGCTTTTCCACCAAAAGCCTGAATCTCTCAATCCTCTGATCAAATATCTGAGTGCCACCACTGGCTTTGGAAGAAATTATATTATGACCCAGAAGATGGACCTAGATGAAGACACTGCTGAAAAATTTTATCAAAAGTTACTGGAACTGGAAAAGCACATTAGGGTCACTATTCAAAAAACAGATAATCAGGCCAGGCTCAGTGGCTCATGCCTATAATTCCAGCACTTTGGGAGGCCAAGGCAGAAGGATCACTTGAGACCAGGAGTTCAAGACCAGCCTGAGAAACATAGTGAGCCCTTGTCTCTACAAAAAGAAATAAAAATAATAGCTGGGTGTGGTGGCATGCGCATGTAGTCCCAGCTACTCAGAAGGATGAGGTGGGAGGATCTCTTGAGGCTGGGAGGCAGAGGTTGCAGTGAGCTGAGATTGTGCCACTGCACTCCAGCCTGGGTGACAGCGAGACCCTGTCTCAAAATATGTATATATTTAATATATATATAAAACCAGAGCTGACAATGACACTCTGGAACATTGCATACCTTCTGTACATTCTGGGGTACATGGATTTCTACTGAGTTGGATAATATGCATTTGTAATAAACTATGAACTATG
modifications: CDS (12)..(1034)
B4: 291 (nucleic acid, listed as Homo sapiens)
chain: CGCCATCCCTGACCCATGGCGCTGAAGAGGATTCAGAAAGAATTGAGTGATCTACAGCGCGATCCACCTGCTCACTGTTCAGCTGGACCTGTGGGAGATGACTTGTTCCACTGGCAAGCCACTATTATGGGGCCTCCTGATAGCGCATATCAAGGTGGAGTCTTCTTTCTCACTGTACATTTTCCGACAGATTATCCTTTTAAACCACCAAAGATTGCTTTCACAACAAAAATTTACCATCCAAACATAAACAGTAATGGAAGTATTTGTCTCGATATTCTGAGGTCACAATGGTCACCAGCTCTGACTGTATCAAAAGTTTTATTGTCCATATGTTCTCTACTTTGTGATCCTAATCCAGATGACCCCTTAGTACCAGATATTGCACAAATCTATAAATCAGACAAAGAAAAATACAACAGACATGCAAGAGAATGGACTCAGAAATATGCAATGTAA
modifications: CDS (16)..(456)

This data set concerns STAT6. Briefly: Screening of full-length cDNA clones for promotion of STAT6 activation (luciferase reporter N4×8-luc). Type of data set: cell-based. The note with it: NIH3T3 cells cotransfected with N4×8-luc reporter and cDNA plasmid; 48 h culture, then mouse IL-4 0.5 ng/ml for 6 h. The method, then: As a preferable method, NIH3T3 cells are inoculated on 10% FBS (Fetal Bovine Serum)-containing IMDM medium in a 96-well cell culture plate to a final cell density of 1×10^4 cells/well, and cultured for 24 hours at 37° C., in the presence of 5% CO2. Then, the luciferase reporter plasmid N4×8-luc which has a STAT6 response sequence, and the expression vector are cotransfected into the cells in a well using FuGENE 6 (Roche). After 48 hours of culture at 37° C., in the presence of 5% CO2 mouse IL-4 (Immuno Biological Laboratories Co., Ltd.) is added to a final concentration of 0.5 ng/ml. After culturing for further 6 hours, promoting activity for STAT6 activation is then measured by measuring luciferase activity using a long term luciferase assay system, Picagene LT2.0 (Toyo Ink Mfg). For example, luciferase activity can be measured using PerkinElmer's Wallac ARVOTMST 1420 MULTILABEL COUNTER. The method for gene introduction by FuGENE6, and measurement of luciferase activity by Picagene LT2.0 can be performed respectively according to the attached protocols. In a method of gene introduction with a 96-well plate using FuGENE6, the amount of FuGENE6 per 1 well is suitably 0.3 to 0.5 μl, preferably 0.3 μl; the amount of N4×8-luc reporter plasmid is suitably 50 to 100 ng, preferably 100 ng; and the amount of expression vector is suitably 50 to 100 ng, preferably 100 ng. An ability (action) to promote STAT6 activation refers to an ability to increase the reporter activity (luciferase activity) relative to the control experiment (for cells into which the reporter gene and a null vector were introduced). Increase in reporter activity is preferably by a factor of 1.5 or more, more preferably by a factor of 3 or more, and still more preferably by a factor of 6 or more.
NIH3T3 cells (purchased from Dainippon Pharmaceutical) were grown to 1×10^4 cells/well in a 96 well plate for cell culture for 24 hours at 37° C. (in the presence of 5% CO2) using 10% FBS containing IMDM medium. Then, 100 ng of luciferase reporter plasmid N4×8-luc having a STAT6 response sequence and 2 μl of the full-length cDNA prepared in above Example 1.(3) were cotransfected into the cells in a well using FuGENE 6 (purchased from Roche) according to the manufacturer's protocol. The luciferase reporter plasmid N4×8-luc having the STAT6 response sequence was constructed as follows. […] 157, 2058-2065 (1996)], oligonucleotides having the following sequences were synthesized:
The synthesized oligonucleotides were dissolved in sterile water to be 1μg/μl, respectively, mixed in 10 μl lots, and adjusted the volume to 32 μl with sterile water. The solution was heated for 5 min at 90° C., and gradually cooled down to room temperature to prepare a double-stranded oligonucleotide solution. The solution was reacted with T4 polynucleotide kinase (Takara Shuzo) according to the attached manual, then the reaction product was purified in a usual manner. Separately, SV40 promoter region of pGL3-Promoter vector (Promega) was replaced by the HSV thymidine kinase promoter sequence (from −50 to +10) with Hind III site and BglII site to construct a vector tk-luc. The aforesaid double-stranded oligonucleotide fragments were inserted into the XhoI site of this tk-luc vector using T4 DNA ligase (GIBCO/BRL). The obtained clones were sequenced according to a usual method, and clones in which plural oligonucleotide fragments were inserted were selected. […] The four-interlinked DNA fragments were excised from the N4×4-luc with a XhoI and a BglII site and purified to be inserted into a BamHI and a XhoI site of pBluescript II KS+ (Stratagene). The four-interlinked DNA fragments were excised from this plasmid with KpnI and SpeI and inserted into a KpnI and a NheI site of N4×4-luc plasmid to finally obtain N4×8-luc.
For orientation: Reporter assays use an easily measured gene product as a stand-in for the process of interest.
As to B1, the “Activity = (luciferase activity of the gene of each SEQ ID NO:)/(luciferase activity of pME18S-FL3)” value is 11.7.

With B2, the “Activity = (luciferase activity of the gene of each SEQ ID NO:)/(luciferase activity of pME18S-FL3)” value came to 17.0. The result for B3 reads 14.7; that for B4, 13.0.
